In patent US20230265171A1:
Like-named read-outs stand apart in the source and are kept apart here.

Assays:
[1] = biological target: SARS-CoV-2 spike glycoprotein S1 region (SARS-CoV-2) (UniProt P0DTC2); assay: ELISA, coated antigen
[2] = biological target: SARS-CoV-2 spike receptor binding domain (RBD) (SARS-CoV-2) (UniProt P0DTC2); assay: ELISA, coated antigen
[3] = biological target: SARS-CoV-2 spike glycoprotein S1 region (SARS-CoV-2) (UniProt P0DTC2); assay: ELISA, coated antigen; remark: listed apart in the source
[4] = biological target: SARS-CoV-2 spike receptor binding domain (RBD) (SARS-CoV-2) (UniProt P0DTC2); assay: ELISA, coated antigen; remark: listed apart in the source
[5] = biological target: Dengue serotype 1 envelope antigens on pseudotype virus (Dengue virus serotype 1); assay: cell-based or functional assay
[6] = biological target: HCoV-229E S1 (HCoV-229E) (UniProt P15423); assay: ELISA, antigen coated at 2 µg/mL
[7] = biological target: HCoV-NL63 S1 (HCoV-NL63) (UniProt Q6Q1S2); assay: ELISA, antigen coated at 2 µg/mL
[8] = biological target: MERS CoV S1 (MERS CoV) (UniProt K9N5Q8); assay: ELISA, antigen coated at 2 µg/mL
[9] = biological target: SARS CoV RBD (SARS-CoV) (UniProt P59594); assay: ELISA, antigen coated at 2 µg/mL
[10] = biological target: SARS-CoV-2 spike on GFP reporter pseudotype virus (SARS-CoV-2) (UniProt P0DTC2); assay: cell-based or functional assay
[11] = biological target: SARS-CoV-2 spike receptor binding domain (RBD) (SARS-CoV-2) (UniProt P0DTC2); assay: RBD:ACE2-His blocking ELISA, competitor ACE2-His

## IVIG (Gamunex)
[1]
  EC50: 1410 µg/mL
  peak OD signal: 1.99 OD
[2]
  EC50: 1270 µg/mL
  peak OD signal: 2.26 OD
[3]
  EC50: 1380 µg/mL
[4]
  EC50: 1250 µg/mL
[5]
  Neutralization IC50: 12.2 µg/mL
[6]
  EC50: 96 µg/mL
[7]
  EC50: 140 µg/mL
[8]
  EC50: 1330 µg/mL
[9]
  EC50: 1280 µg/mL

## SARS CoV mAb [CR3022] (antibody)
[3]
  EC50: 0.078 µg/mL
[4]
  EC50: 0.088 µg/mL
[10]
  CoV-2 pseudotype neutralization IC50: 100 µg/mL

## SARS CoV-2 mAb [SAD-S35] (antibody)
[3]
  EC50: 0.058 µg/mL
[4]
  EC50: 0.057 µg/mL
[10]
  CoV-2 pseudotype neutralization IC50: 0.26 µg/mL
[11]
  IC50: 1.1 µg/mL
